Results from publication doi:10.1101/2020.08.11.243964.

Biological target: Human connexin 26 protein (hCx26) (human) (UniProt P29033)
Assay: cryo-EM structure

stoichiometry N: 12
Substance: Human connexin 26 protein (hCx26) (from UniProt P29033) (natural protein)
